Test results: patent US20190309059A1 (SHANGHAI PHARMAEXPLORER, published 2019)

Key:
[1] = target: cynomolgus IL-13 (purchased from sino biological) (cynomolgus) (UniProt Q0PW92); assay: ELISA, cynomolgus IL-13; antibody at 2.67 nM
[2] = target: cynomolgus IL-13 (purchased from sino biological) (cynomolgus) (UniProt Q0PW92); assay: ELISA, cynomolgus IL-13; antibody at 0.021 nM
[3] = target: his-labeled human IL-13 (immunogen A) (human) (UniProt P35225); assay: FACS blocking, biotin-IL-13 on IL-13Ra2 HEK293 cells; antibody at 0.27 nM
[4] = target: his-labeled human IL-13 (immunogen A) (human) (UniProt P35225); assay: FACS blocking, biotin-IL-13 on IL-13Ra2 HEK293 cells; antibody at 0.05 nM
[5] = target: his-labeled human IL-13 (immunogen A) (human) (UniProt P35225); assay: FACS blocking, biotin-IL-13 on IL-13Ra1/IL-4Ra HEK293 cells; antibody at 166.67 nM
[6] = target: his-labeled human IL-13 (immunogen A) (human) (UniProt P35225); assay: FACS blocking, biotin-IL-13 on IL-13Ra1/IL-4Ra HEK293 cells; antibody at 0.01 nM
[7] = target: his-labeled human IL-13 (immunogen A) (human) (UniProt P35225); assay: FACS blocking, biotin-IL-13 on IL-13Ra2 HEK293 cells; antibody at 166.67 nM
[8] = target: his-labeled human IL-13 (immunogen A) (human) (UniProt P35225); assay: FACS blocking, biotin-IL-13 on IL-13Ra2 HEK293 cells; antibody at 1.33 nM
[9] = target: cynomolgus IL-13 (purchased from sino biological) (cynomolgus) (UniProt Q0PW92); assay: ELISA, cynomolgus IL-13; antibody at 0.53 nM
[10] = target: his-labeled human IL-13 (immunogen A) (human) (UniProt P35225); assay: FACS blocking, biotin-IL-13 on IL-13Ra1/IL-4Ra HEK293 cells; antibody at 1.33 nM
[11] = target: his-labeled human IL-13 (immunogen A) (human) (UniProt P35225); assay: FACS blocking, biotin-IL-13 on IL-13Ra2 HEK293 cells; antibody at 0.01 nM
[12] = target: his-labeled human IL-13 (immunogen A) (human) (UniProt P35225); assay: FACS blocking, biotin-IL-13 on IL-13Ra1/IL-4Ra HEK293 cells; antibody at 33.33 nM
[13] = target: his-labeled human IL-13 (immunogen A) (human) (UniProt P35225); assay: FACS blocking, biotin-IL-13 on IL-13Ra1/IL-4Ra HEK293 cells; antibody at 6.67 nM
[14] = target: his-labeled human IL-13 (immunogen A) (human) (UniProt P35225); assay: FACS blocking, biotin-IL-13 on IL-13Ra2 HEK293 cells; antibody at 6.67 nM
[15] = target: his-labeled human IL-13 (immunogen A) (human) (UniProt P35225); assay: ELISA, biotin-immunogen A; antibody at 0.001 nM
[16] = target: his-labeled human IL-13 (immunogen A) (human) (UniProt P35225); assay: FACS blocking, biotin-IL-13 on IL-13Ra1/IL-4Ra HEK293 cells; antibody at 0.27 nM
[17] = target: cynomolgus IL-13 (purchased from sino biological) (cynomolgus) (UniProt Q0PW92); assay: ELISA, cynomolgus IL-13; antibody at 0.11 nM
[18] = target: his-labeled human IL-13 (immunogen A) (human) (UniProt P35225); assay: FACS blocking, biotin-IL-13 on IL-13Ra1/IL-4Ra HEK293 cells; antibody at 0.05 nM
[19] = target: his-labeled human IL-13 (immunogen A) (human) (UniProt P35225); assay: ELISA: biotin-labeled immunogen A on streptavidin plate, antibody titrated, HRP secondary antibody, OD450
[20] = target: his-labeled human IL-13 (immunogen A) (human) (UniProt P35225); assay: FACS blocking, biotin-IL-13 on IL-13Ra1/IL-4Ra HEK293 cells; antibody at 0.002 nM
[21] = target: cynomolgus IL-13 (purchased from sino biological) (cynomolgus) (UniProt Q0PW92); assay: ELISA, cynomolgus IL-13; antibody at 0.004 nM
[22] = target: his-labeled human IL-13 (immunogen A) (human) (UniProt P35225); assay: FACS blocking, biotin-IL-13 on IL-13Ra2 HEK293 cells; antibody at 0.002 nM
[23] = target: his-labeled human IL-13 (immunogen A) (human) (UniProt P35225); assay: FACS blocking, biotin-IL-13 on IL-13Ra2 HEK293 cells; antibody at 33.33 nM
[24] = target: his-labeled human IL-13 (immunogen A) (human) (UniProt P35225); assay: ELISA, biotin-immunogen A; antibody at 2.67 nM
[25] = target: his-labeled human IL-13 (immunogen A) (human) (UniProt P35225); assay: cell-based or functional assay

cynomolgus IL-13 (purchased from sino biological) (cynomolgus), sequence (Q0PW92 entry or part of it): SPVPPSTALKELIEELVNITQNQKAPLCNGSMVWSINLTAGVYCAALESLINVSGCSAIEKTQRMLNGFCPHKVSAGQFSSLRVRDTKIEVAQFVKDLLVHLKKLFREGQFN

B1: 28A2E11 (lead antibody, mouse hybridoma) (antibody, V domains shown)
VH: EVQLQQSGAELVKPGASVKLSCTASGFNIKDYYMHWVKQRTEQGLEWIGRIDPEDGETKYAPKFHDKATLTADTSSNTAYLQFSSLASEDTAVYYCTRYDYYGPFAYWGQGTLVTVSA
VL: QAVVTQESVLTTSPGETVTLTCRSSTGAVTTSNYANWVQEKPDHLFTGLIGGTNNRAPGVPARFSGSLIGDKAALTITGAQTEDEAIYFCALWYINHFIFGSGTKVTVL
notes: Mouse monoclonal antibody purified from hybridoma supernatant on Protein G
- OD450 nm [1]: 1.35
- OD450 nm [2]: 0.14
- mean fluorescence intensity [3]: 72.1
- mean fluorescence intensity [4]: 76.9
- mean fluorescence intensity [5]: 24.6
- mean fluorescence intensity [6]: 76.2
- mean fluorescence intensity [7]: 53.3
- mean fluorescence intensity [8]: 60.1
- OD450 nm [9]: 0.83
- mean fluorescence intensity [10]: 39.6
- mean fluorescence intensity [11]: 79.7
- mean fluorescence intensity [12]: 27.2
- mean fluorescence intensity [13]: 28.8
- mean fluorescence intensity [14]: 55.9
- OD450 nm [15]: 0.07
- mean fluorescence intensity [16]: 64.2
- OD450 nm [17]: 0.35
- mean fluorescence intensity [18]: 71.5
- EC50 (read off the curve) [19]: 0.2 nM
- mean fluorescence intensity [20]: 74.7
- OD450 nm [21]: 0.08
- mean fluorescence intensity [22]: 76.5
- mean fluorescence intensity [23]: 56.6
- OD450 nm [24]: 1.69
- TARC (pg/mL), A549 cells + IL-13 5 ng/mL + TNFα; antibody at 0.001 nM [25]: 1850 pg/mL
- TARC (pg/mL), A549 cells + IL-13 5 ng/mL + TNFα; antibody at 0.004 nM [25]: 1700 pg/mL
- TARC (pg/mL), A549 cells + IL-13 5 ng/mL + TNFα; antibody at 0.021 nM [25]: 1590 pg/mL
- TARC (pg/mL), A549 cells + IL-13 5 ng/mL + TNFα; antibody at 0.11 nM [25]: 1360 pg/mL
- TARC (pg/mL), A549 cells + IL-13 5 ng/mL + TNFα; antibody at 0.5 nM [25]: 601 pg/mL
- TARC (pg/mL), A549 cells + IL-13 5 ng/mL + TNFα; antibody at 2.7 nM [25]: 118 pg/mL
- TARC (pg/mL), A549 cells + IL-13 5 ng/mL + TNFα; antibody at 13.3 nM [25]: 51 pg/mL
- TARC (pg/mL), A549 cells + IL-13 5 ng/mL + TNFα; antibody at 66.7 nM [25]: 56 pg/mL
